In the supplement of paper PMC10567573:
± gives the standard deviation.

Assay: protein stability index of a GFP-peptide fusion (GPS, HEK-293T) (PSI 1-6); higher = more stable
[1] = treatment: DMSO, c terminus: a fixed tail appended
[2] = treatment: MLN4924 1 uM, 8 h, c terminus: a fixed tail appended
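Further: 24-mer peptide tiles fused after GFP, lentivirally expressed, FACS-sorted into six equal bins by GFP/DsRed ratio, decoded by Illumina sequencing, PSI is the read-weighted mean bin number.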

Sequence | protein stability index [1] | protein stability index [2] | protein stability index (treatment: DMSO, c terminus: native) | protein stability index (treatment: MLN4924 1 uM, 8 h, c terminus: native)
PPRTIKRTRRRLSRNRDPGRLILS [PWWP2B] | 4.37 ± 0.27 | 4.52 ± 0.35 | – | –
TYLSKVDPDGKKIKQIQQLFEEIL [FBXO33] | 2.25 ± 0.24 | 1.84 ± 0.26 | – | –
VLDILTRLPESVERLTGVSISQVN [FLOT1] | 2.43 ± 0.23 | 2.3 ± 0.48 | – | –
PEMNGNGAVAPMDFTTAAEDQPIN [NOL4L] | 5.35 ± 0.26 | 5.47 ± 0.15 | – | –
HEAFKDELKTFRLKTRSWAGERSR [CDC25B] | 3.57 ± 0.3 | 3.8 ± 0.22 | – | –
LQLGEGVEFDVLPAFDALGQLTGG [OAS1] | 2.37 ± 0.35 | 2.72 ± 0.51 | – | –
LDLRVKGILSSQAEGLANGPDVLE [EHMT1] | 4.12 ± 0.2 | 4.07 ± 0.39 | – | –
WDPACLPLPPPPPAFKSMEVANFY [CEBPB] | 3.02 ± 0.28 | 3.28 ± 0.47 | – | –
RAYFMSDTREEKRFLGEGHHRVQE [CHGB] | 3.87 ± 0.28 | 3.89 ± 0.06 | – | –
NWLGRPSKVLSLQDLCCRTIVSCT [RAB40A] | 2.74 ± 0.08 | 2.88 ± 0.44 | – | –
MISAAQLLDELMGRDRNLAPDEKR [LUC7L3] | 3.87 ± 0.19 | 4.11 ± 0.21 | – | –
QSLLGYTPEELHAMLDVKPDADE [ETS1] | – | – | 5.2 ± 0.36 | 5.18 ± 0.32
FSQKSCLVAHQRYHTGKTPFVCPE [ZNF649] | 2.58 ± 0.13 | 2.6 ± 0.23 | – | –
PPVTDLGELRRRPGDMKTKMELLI [CPOX] | 3.2 ± 0.36 | 3.03 ± 0.3 | – | –
WSLGVIMYEMLIGYPPFCSETPQE [STK38L] | 2.85 ± 0.59 | 2.52 ± 0.44 | – | –
SRLNLTGLGYFSCHSHTVVQDYSY [CCDC3] | 2.12 ± 0.37 | 2.18 ± 0.11 | – | –
LFLKEGACDELFSYLIEKVKRKKN [PRAME] | 2.18 ± 0.5 | 2.21 ± 0.27 | – | –
PIIYFNDYWNLQKDYYPINESLAS [CLPTM1] | 2.71 ± 0.85 | 2.06 ± 0.2 | – | –
YQQIKAGAYDFPSPEWDTVTPEAK [CAMK2B] | 3.89 ± 0.34 | 4.15 ± 0.32 | – | –
TAGEMVFVYENAKEGARNIRTSER [BTBD10] | 3.94 ± 0.21 | 3.98 ± 0.14 | – | –
AELAGVIKRLWKDSGVQACFNRSR [GNAI1] | 2.62 ± 0.23 | 2.42 ± 0.72 | – | –
LCTPEGWFSCQGPFDMDSCLSRHS [DFFB] | 2.52 ± 0.5 | 2.75 ± 0.38 | – | –
IEVQPNFEVPYYNRGLILYRLGYF [TTC32] | 3.17 ± 0.4 | 2.73 ± 0.38 | – | –

Sequence | protein stability index [1] | protein stability index [2] | protein stability index (treatment: DMSO, c terminus: native) | protein stability index (treatment: MLN4924 1 uM, 8 h, c terminus: native)
SEGRRVSFGVDEEERVRVLQGVRL [CHCHD6] | 4.38 ± 0.19 | 4.38 ± 0.3 | – | –
AFSYSSSSRFSSSRLLGSASPSSS [PRPH] | 3.04 ± 0.21 | 3.09 ± 0.051 | – | –
KQTIGNSCKACGYRGMLDTHHKLC [EIF5] | 2.8 ± 0.37 | 2.81 ± 0.5 | – | –
GRPPDPADWAVMDVVNYFRTVGFE [SAMD13] | 2.57 ± 0.25 | 2.78 ± 0.3 | – | –
LFAELGYFTDTDELQLEAANETYE [ATF6] | 4.04 ± 0.1 | 4.15 ± 0.24 | – | –
GVAVGDWVLSIDGENAGSLTHIEA [PDLIM7] | 3.03 ± 0.5 | 2.96 ± 0.36 | – | –
SDAWTYCISKNEWIQFNHPYTEKP [KLHDC2] | 2.34 ± 0.18 | 2.37 ± 0.26 | – | –
LLLLQVSSSYAGQFRVIGPRHPIR [MOG] | 2.53 ± 0.51 | 2.04 ± 0.22 | – | –
AMCVRYDGVEVDDSYCDALTRPEP [ADAMTSL2] | 4.37 ± 0.33 | 4.31 ± 0.28 | – | –
VSCGFGGGAGSGFGGGYGGGLGGG [KRT13] | 2.32 ± 0.35 | 2.2 ± 0.5 | – | –
AQGFAADVRLMFSNCYKYNPPDHE [BRD3] | 2.99 ± 0.31 | 2.8 ± 0.39 | – | –
HFHPTVIGESMYGDFEEAFDHLQN [TENT5C] | 3.82 ± 0.064 | 3.9 ± 0.37 | – | –
EGGLYFERRPVAQSTDGARGKRGY [SPSB2] | 4.55 ± 0.33 | 5.03 ± 0.11 | – | –
RRHLQFWKSHLRNVQRPLLQAPFL [RHOBTB2] | 2.29 ± 0.38 | 2.21 ± 0.3 | – | –
IRAMGRLKIDFGDSARADDARQLF [GNAI1] | 2.63 ± 0.25 | 2.77 ± 0.14 | – | –
RLGQRQPPPSEPTQGPEIVPRGAG [DNAJC4] | 4.83 ± 0.15 | 4.84 ± 0.12 | – | –
KGAVNLHMEEEVEDFLLKKPIVPT [CDC25A] | 4.14 ± 0.31 | 4.13 ± 0.2 | – | –
DIVDRGSTNLGVNQAGFTLHSAIY [ADD1] | 2.36 ± 0.16 | 2.49 ± 0.45 | – | –
LFVTVTAVNLSVSTLPSLREEEEQ [KCNG1] | 2.13 ± 0.34 | 2.18 ± 0.45 | – | –
VQSLQLSPRTRGSWSQPQPLKAPC [RASAL3] | 3.54 ± 0.41 | 3.68 ± 0.098 | – | –
VKKKKEEGVIDSSDKEIVAEAERL [EIF5] | 5.04 ± 0.59 | 5.46 ± 0.2 | – | –
MMEEIDRFQDPAAASISDGDCDAR [FAM219A] | 5.38 ± 0.16 | 5.42 ± 0.11 | – | –
